Source: patent US9809653B2, “Anti-LAMP1 antibodies and antibody drug conjugates, and uses thereof” (SANOFI, priority 2012, dated 2017)
Where a chain is given by its changes, count along the chain named.

Tests used:
Assay in all cases: Ala scan of LAMP1 transmembrane proteins, flow cytometry
Format in all cases: binding
[1] = target: T1, Alascan LAMP1 transmembrane proteins (hLAMP1_ΔGYQTI mutants) (Homo sapiens, UniProt P11279, I149A); conditions: pXL6070, I149A in hLAMP1_ΔGYQTI; loss = decrease of more than 50% of the mean fluorescence
T1 construct: expressed in transfected cells; host or cells: HEK293 (293-F), transient transfection
T1 sequence (P11279 with tags, fused parts or gaps I149A): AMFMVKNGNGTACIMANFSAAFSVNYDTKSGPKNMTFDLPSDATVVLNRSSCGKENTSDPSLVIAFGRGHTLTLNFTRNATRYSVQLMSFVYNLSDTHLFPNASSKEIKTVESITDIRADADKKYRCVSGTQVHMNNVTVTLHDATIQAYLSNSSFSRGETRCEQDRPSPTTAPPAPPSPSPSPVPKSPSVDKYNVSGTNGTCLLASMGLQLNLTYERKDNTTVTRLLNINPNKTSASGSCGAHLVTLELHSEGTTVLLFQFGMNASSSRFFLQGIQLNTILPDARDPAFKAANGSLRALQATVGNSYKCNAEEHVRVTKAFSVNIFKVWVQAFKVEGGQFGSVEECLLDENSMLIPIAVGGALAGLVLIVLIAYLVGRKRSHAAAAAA
Text: (§1) Individual residues identified in example 6.5 and not involved in β-strand structure have been individually replaced by an alanine residue in the LAMP1 sequence derived from hLAMP1_ΔGYQTI and encoded in plasmid pXL5626 (example 6.4). A total of 21 plasmids were engineered from pXL5626 (see Table 19) and used to assay LAMP1 expression at the cell membrane of HEK293 cells after transient transfection. Two days post transfection cells were processed, analyzed by flow cytometry (Guava® easyCyte™ 8HT) as mentioned in example 4.7, and the mean fluorescence was recorded. This fluorescence represents a semi-quantitative assessment of binding. Loss of binding is reported on Table 19 when there is a decrease of more than 50% of the mean fluorescence compared to the control protein encoded from pXL5626.

[2] = target: T2, Alascan LAMP1 transmembrane proteins (hLAMP1_ΔGYQTI mutants) (Homo sapiens, UniProt P11279, R186A); conditions: pXL6081, R186A in hLAMP1_ΔGYQTI; loss = decrease of more than 50% of the mean fluorescence
T2 construct: expressed in transfected cells; host or cells: HEK293 (293-F), transient transfection
T2 sequence (P11279 with tags, fused parts or gaps R186A): T1 sequence (P11279 with tags, fused parts or gaps I149A) with A121I, R158A
Text: as §1

[3] = target: T3, Alascan LAMP1 transmembrane proteins (hLAMP1_ΔGYQTI mutants) (Homo sapiens, UniProt P11279, D150A); conditions: pXL6085, D150A in hLAMP1_ΔGYQTI; loss = decrease of more than 50% of the mean fluorescence
T3 construct: expressed in transfected cells; host or cells: HEK293 (293-F), transient transfection
T3 sequence (P11279 with tags, fused parts or gaps D150A): T1 sequence (P11279 with tags, fused parts or gaps I149A) with A121I, D122A
Text: as §1

Measured: Binding to mAb, Alascan

B1: MAb1: murine monoclonal anti-LAMP1 antibody, VH SEQ ID NO: 1, VL SEQ ID NO: 5 (antibody, V domains shown)
VH: QVQLQQSGAELVKPGASVKMSCKASGYIFTNYNIHWVKKSPGQGLEWIGAIYPGNGDAPYSQKFKDKATLTADKSSSTTYMQLSRLTSEDSAVYYCVRANWDVAFAYWGQGTLVSVSA
VL: DIQMTQSPPSLSASLGGKVTITCKASQDIDRYMAWYQDKPGKGPRLLIHDTSTLQPGIPSRFSGSGSGRDYSFSISNLEPEDIATYYCLQYDNLWTFGGGTKLEIK
modifications: Antibody Fragment; antibody fragment
Binding loss: all assays above
